Reference: the nanobody polyreactivity screen of Harvey et al. (2022)

Assay: yeast display, Sf9 membrane polyspecificity reagent, FACS + sequencing; frameworks hold sequencing errors
Summary of the method: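 Synthetic nanobody libraries on Saccharomyces cerevisiae BJ5465 were galactose-induced for 36–48 hours, stained 1 hour at 4 °C with 10% biotinylated, detergent-solubilized Sf9 membrane reagent and enriched on streptavidin microbeads. FACS then separated cells into low and high (top ~1%) gates by anti-HA (expression) and streptavidin (reagent binding) fluorescence. Genes were colony-PCR amplified, MiSeq 2 × 250 sequenced and CDR-length filtered. A clone's polyreactivity label is that of its gate of origin.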

Sequence	polyreactivity (PSR sort gate)
QVQLVESGGGLVQAGGSLRLSCAASGSTFDVYAMGWYRQAPGKERELVATISWIGGSTYYADSVKGRFTISRDYAKKTVYLQMNSLKPEDTAVYYCAAESSPLEYDYWGQGTQVTVSS	low polyreactivity
QVQLVESGGGLVQAGGSLRLSCAASGFTFSYYAMGWYRQAPGKERELVASISRSGNTYYADSVKGRFTISRDNAKNTVYLQMNSLKPEDTAVYYCNARRHYRRYSYRHNYWGQGTQVTVSS	high polyreactivity
QVQLVESGGGLVQAGGSLRLSCAASGSIFSGNAMGWYRQAPGKERELVAAISRSGGSTYYADSVMGRFTISRDNAKNTVYLQMNSLKPEDTAVYYCNAGRYRAGGWGVGEGYWGQGTQVTVSS	high polyreactivity
QVQLQESGGGLVQAGGSLRMSCAASGNIFDADIMGWYRQAPGKERELVASITDGRRTNYADSVKGRYTISRDSEKNTVYMQMNSLIPVDTAVYYCADIAYPVVPTYFDYDSDYFHWGQGTQVTVSS	high polyreactivity
QVQLVESGGGLVQAGGSLRLSCAASGRIFWVNAMGWYIQAPGKERELVAVISRGGSTTYADSVKGRFTISRDNEKNTVYLQMNSLKPEDTAVYYCAADAYSHAFLYYGYDYWGQGTQVTVSS	low polyreactivity
QVQLVESGGVLVQAGGSLRISCAASGNTFVHYAMGWYRQAPGKEREFVAAISSSGGSTYYADSVKGRFTISRDNAKNTVYLQMNSLKPEDTAVYYCAAGGWPYSGGWFFQPNYDYWGQGTQVTVSS	low polyreactivity
QVQLVESGGGLVQAGGSLRLSCAASGSIFRSYAMGWYRQSPGKERELVAAITRSGGSTYYADSVKGRFTISRDNAKNTVDLQMNSLKPEDTAVYYCAAEYYSYTWGWGHGYWGQGTQVTVSS	high polyreactivity
QVQLVESGGGLVQAGGSLRLSCAASGSTFRHYAMGWYRQAPGKERELVAAITRRTVSTYYADSVKGRFTISRDNAKNSVYLQMNSLKPEHTAVYYCAADYWYSGYDYWGQGTQVTVSS	low polyreactivity
QVQLVESGGGLVQAGGSLRLSCAASGYTFRYNTMGWYRQAPGKERELVADISSGVGNTYYADSVKGRFTISRDNAKNTVYLQMNSLKPEDTAVYYCNADYKSSYYWYLWYNYWGHGTQVTVSS	low polyreactivity
QVQLVESGAGLVQAGGSLRLSCAASGSTFYRYVMGWYRQAPGKERELVAAISGSGVRTYYADSVKGRFTISRDNAKNTVYLQMHSLKPEATAVYYCAASVRSRSQTYLRYDYWGQGTQVTVSS	high polyreactivity
QVQLVESGGGLVQAGGSLRLSCAASGSTFSGYAMGWYRQAPGKERELVAAISSSGGGTYYADSVKGRFTISRDNAKNTDYLQMNSLKPEDTAVYYCAARVGYRYRKGRYDYWGKGTQVTVSS	high polyreactivity
QVQLVESGGGLVQAGGSLRLSCAASGRIFSYYAMGWYRQAPGKERELVAAINWSGSSTYYADSVKGRFTISRDNAKNTVYLQMNSLKPEDTAVYYCAAGVPKNGQAGYDYWGQGTQVTVSS	high polyreactivity
QVQLVESGGGLVQAGGSLRLSCAASGRTFGWYAMGWYRQAPGKERELVAAINNSGDITYYADSVKGRFTISRDNAKNTVYLQMNSLKPEDTAVYYCAKSLPHSTSRDYWGQGTQVTVSS	low polyreactivity
QVQLVESGGGLVQAGGSLRLSCAASGSTFKYYAMGWYRQAPGKERELVAAISGTGGNTYYADSVKGRFTISRDNAKNTVYLQMNSLKPEDTAVYYCAAGFRRGWAYTTYDYWGQGTQVTVSS	low polyreactivity
QVQLVESGGGLVQAGGSLRLSCAASGITFKPYGMGWYRQAPGKERELVATISWSGGSTNYADSVKGRFTISRDNAKNTVYLQMNILKPEDTAVYYCAATSYSHTEIRYDYWGQGTQVTVSS	low polyreactivity
QVQLVESGGGLVPAGGSLRLSCAASGFIILYYAMGWYRHEPGKERELVAAITTRGGRTYYADSVKGRFTISRDNAKNTVYLQMYSLKPEDTALYYCAADHLYWGLEDESWGQGTQVTVSS	low polyreactivity
QVQLVESGGGLVQAGGSLRLSCAASGRTFYDNAMGWYRQAPGKERELVAAITKSGGRTYYADSVKGRFTISRDFAKNTVYLQMNSLKPEDTAVYYCAASWPNYLYEYWGQGTQVTVSS	high polyreactivity
QVQLVESGGGLVQAGGSLRLSCAASGFTFRDYAMGWYRQAPGKERELVAAISRSGDSTYYADSVKGRFTISRDNAKNTVYLQMNSLKPEDTAVYYYAAKRRYTTYDYWGQGTQVTVSS	high polyreactivity
QVQLVESGGGLVQAGGSLRLSCAASGNIFGRYAMGWYRQAPGKARELVAAISGSGGRTYYADSVKGRFTISRYNAKKTVYLQMNSLKPEDTAVYYCAKVFALRGYDYWGQGTQVTVSS	high polyreactivity
QVQLVESGGGLVQAGGSLRLSCAASGLIFYYYTMGWYRQAPGKERELVARITSSGGRTYYADSVKGRFTISRDNAKNTVYLQMNSLKPEDTAVYYCNARVPRYNGGSTMEYWGQGTQVTVSS	high polyreactivity
QVQLVESGGGLVQAGGSLRLSCAASGRIFNSNAMGWYRQAPGKERELVAAISSSGTRTYYADSVKGRFTISRDNAKNTVYLQMNSLKPEDTAVYYCNTYYKYAVVPSGGYWGQGTQVTVSS	high polyreactivity
QVQLVESGGGLVQAGGSLRLSCAASGRIFARYTMGWYRQAPGKERELVATITGRGGRTYADSVKGRFTISRDNAKNTVYLQMNSLKPEVTAVYYCNAGGRTASRRYYWGQGSQVTVSS	low polyreactivity

Sequence	polyreactivity (PSR sort gate)
QVQLVESGGGLVQAGGSLRLSCAASGSTFVYYAMGWYRQAPGKEREFVAAISTNGGSTYYADSVKGRYTISRDNAKNTVYLQMNSLKPEDTAVYYCAARWYWGQGTQGTVSS	high polyreactivity
QVQLVESGRGLVQAGGSLRLSCAASGSIFGTNTMGWYRQAPGKERELVAAISWSGGSTYYADSVKGRFTISRDNAKNSVYLHMNSLKPEDTAVYYCNAVYPSVYPVSTRYYWGQGTQVTVSS	high polyreactivity
QVQLVESGGGLVQAGGILRLSSAASGSTFTLNAMGWYRQEPGKERELVADITSGGGGTYYADSVKGRFTISRDNAKNTVYLQMNSLKPEDTAVYYCAADDFHSLLGYWYGLFDFWGQGTQVTVSS	low polyreactivity
QVQLVESGGGLVQAGGSLRLSCAASGRIFSTNAMGWYRQAPGKEREFVAAISWIGGSTYYADSVKGRFTISRDNAKNTVYLQMNSLKPEDTAVYYCAAGVYDDYPWSYDIFNLYDYWGQGTQVTVSS	low polyreactivity
QDQLVESGGGLVQAGGSLRLSCAASGRIISANAMGWYRQAPGKERELVATISTGGGRTYYADSVKGRFTISRDNAKNTVYLQMNSLKPEDTAVYYCNATRNYARVRYYYWGQGTQVTVSS	high polyreactivity
QVQLVESGAGLVQAGGSLRLSCAASGSAFYVYARGWYTQAPGKERELVAAIRGGGSTNYADSVKGRFTISRDNAKNTFYLQMNSLKPEDTAVYDCAARYRSPRYRPSGYSYNYWGQGTQVTVSS	high polyreactivity
QVQLVESGGGLVQAGCSHSLSCAASGLTFDVYTMGWYRQAPGKERELVATISQTYYADSVKGRFTISRDNAKNTVYLQMNSLKPEDTAVYYCAANGFKAQYRDIVYDYGYWGEGTQVTVSS	low polyreactivity
QVQLVESGGGLVQAGGSLRLSCAASGSIFISYAMGWYRQAPGTERELVAAITWSGDSTYYADSVKGRFTISRDNAKNTVYLQMNSLKPEDTAVYYCAADWYFRNQRGYYWGQGTQVTVSS	low polyreactivity
QVQLVESGGGLVQAGGSLRLSCAASGSTFGWNAMGSYRQAPGKERELVAAISSSGGITYYADSVKGRFTISRDNAKNTVYLQMNSLKPEDTAVYYCAARAINTWFRSGVDYGYYLTMDYWGQGTQVTVSS	low polyreactivity
QVQLVESGGGLVQAGGSLRLSCAASGRIFVRNVMGWYRQAPGQERELVARITSGGSTNYADSVKGRFTISRDNAKNTVYLQINSLKPEDTAVYYCAAQGRHYHRTSTGYDYWGQGTQVTVSS	high polyreactivity
QVQLVESGGGLVQAGGSLRLSCAASGRTFPAYTMGWYRQAPGKERELVAAINWSGGSTYYADSVKGRFTISRDNAKNTVYLQMNSLKPEDTAVYYCARTSRYYGFRSYGTLDYWGLGTQVTVSS	high polyreactivity
QVQLVESGGGLVQAGGSLRLSCAASGSTFWHYAMGWYRQAPGKERELVAAISSGGGRTYYADSVKGRFTISRDNAKNTVYLQMNSLQPEDTAVYYCAARYYFYDYWGQGTQVTLSS	high polyreactivity
QVQLVESGGGLVQAGGSLRLSCAASGSIFKRNAMGWYRQAPGKERELVASISSGGSTHYADSVKGRFTNSRDNAKNTVYLQMNSLKPEDTAVYYCAATSIRWSVGSFRRDYWGQVTQVTVSS	low polyreactivity
QVQLVESGGGLVQAGGSLRLSCAASGGIFAYYTMGLYTQDHGKERELVAAISTSSVNTYYADSVKGRFTISRDNAKHTVYLQMNSLKQEVNAVYYCAAEVYYGYDYCGQGTQVTVSS	low polyreactivity
QVQLVESGGGLVQAGGSLRLSCAASGSTFLWYAMGWYRQAPGKERELVAVIDWSGGSTSYADSVKGRFTISRDNAKNTVYLQMNSLKPEDTAVYYCAADYGHYYGLYYWGQGTQVTVSS	low polyreactivity
HVQLVESGGGLVQAGGILRLSCAASGRIFYRYEKGWYRQAPGKERELVAAITAGGNKYYADSVKGRFTISRDNAKNTVYLQMNSLKPEDTAVDYCGAGTTYSRYSVTRVDYWGQGTQVTVSS	high polyreactivity
QVQLVESGGGLVQAGGSLRLSCAASGLIIPAYAMGWYRQAPGKEREMVATITWRGGSTYYADSVKGRFTISRDNAKNTVYLQMNSLKPEDTAVDYCATRPRYYYFRYDYWGQGSQVTVSS	high polyreactivity
QVQLVESGGGLVQPGGSLRLSCAASGFIFTLYAMGWYRQAPGKEREFFAAISWSDGSTTYADSVKGRFTISRDNAKNTVYLQMNSLKREDTAVYYCAAVTSSYIRGLVYHFYYWGQGTLVTVSS	low polyreactivity
QVQLVESGGGLGQAGGSLRLSCAASGLIFFFYAMGWYRQAPGKERELVASISGGGITYYADSVKGRFTISRDNAKNTVYLQMYSLKPEDTAVIKNDFWGQGTQVTVSS	low polyreactivity
QVQLVESGGGLVQAGGSLRLSSAASGRTFVSYAMGWYRQAPGKERELVAVITYSGGSTNYADSVKGRFTISRDNAKNTVYLQMNSLKPEDTAVYYCAATQSIPYSTLYSYDYWGQGTQVTVSS	low polyreactivity
QVQLVESGGGLVQAGGSLRLSCAASGRTFFGNAMGWYRQAPGKERELVAVISQGGGSTYYADSVKGRFTISRDNAKNTVYLQMNSLKPEDTAVYYCAKRYPHFGSGQLGGTYNYWGQGTQVTVSS	low polyreactivity
